Reference: publication PMC9848473
Numbering of substitutions follows the chain as printed. Numbers in names are those of the source. Blank lines part the entries; values can stand above or below the binder they belong to.

Molecular target: Bacillus subtilis Rel N-terminal domain region (RelBs^NTD; residues 1 to 373) (B. subtilis)
Experiment: ITC; DarB or DarB variant (200 uM) in the syringe titrated into RelBs^NTD or variant (15 uM) in the cell; 25 °C; 50 mM Hepes pH 7.5, 500 mM KCl, 500 mM NaCl, 10 mM MgCl2, 1 mM TCEP, 0.002% mellitic acid

Kd: 10.6 µM
B1: Bacillus subtilis DarB E34R (natural protein)
chain: MISLQSDQLLEATVGQFMIEADKVAHVQVGNNLRHALLVLTKTGYTAIPVLDPSYRLHGLIGTNMIMNSIFGLERIEFEKLDQITVEEVMLTDIPRLHINDPIMKGFGMVINNGFVCVENDEQVFEGIFTRRVVLKELNKHIRSLNK

Kd: 8.9 µM
B2: Bacillus subtilis DarB E74G/R75G (natural protein)
chain: B1 chain with R34E, E74G, R75G
